Test results published in patent publication US20230270892A1, “CHELATOR COMPOSITIONS FOR RADIOMETALS AND METHODS OF USING SAME” (TRIUMF INC., priority 2020, published 2023).

Columns and labels:
in vivo = assay: in vivo; set-up: species or system mice; settings: male, C57BL/6J, mouse, iv, total radioactivity
Protocol: The inventors performed an in vivo evaluation to establish the biodistribution profile of ^225Ac-crown-αMSH in B16F10 tumor bearing mice. The B16F10 cell line (Mus musculus) was obtained commercially from ATCC (CRL-6475), and confirmed pathogen-free using the IMPACT 1 mouse profile (IDEXX BioResearch). The cells were cultured in DMEM media (StemCell Technologies) supplemented with 10% FBS, 100 U/mL penicillin and 100 µg/mL streptomycin at 37° C. in a humidified incubator containing 5% CO2. All animal experiments were conducted according to the guidelines established by Canadian Council on Animal Care and approved by Animal Ethics Committee of the University of British Columbia (UBC). Male C57BL/6J mice were acquired in-house and kept under pathogen-free conditions in the Animal Resource Centre at the BC Cancer Research Centre. The mice were anesthetised by inhalation of 2% isoflurane in 2 L/min oxygen, and 1 x10^6 B16F10 cells were inoculated subcutaneously at right flank. Two to four days after inoculation, the mice were transferred to the UBC Centre of Comparative Medicine, where biodistribution studies were performed once the tumors reached 8-10 mm. At the day of biodistribution mice were injected in the tail vein with ~20 kBq of ^225Accrown-αMSH (range: 10.8-31.6 kBq). After injection mice were allowed to roam freely in their cages, and they were euthanized in groups of 4 at 2 hours post injection by CO2 asphyxiation under isoflurane anesthesia. Blood was collected by cardiac puncture and a full biodistribution performed. Organs were cleaned from blood, weighed and the activity determined using a calibrated gamma counter (Packard Cobra II Auto-gamma counter, Perkin Elmer, Waltham, MA, USA) using three energy windows: 60-120 keV (window A), 180-260 keV (window B), and 400-480 keV (window C). Counting was performed after 6 hours post-sacrifice to ensure equilibrium of the ^225Ac decay chain. Counts were decay corrected from the time of sacrifice and total organ weights were used for the calculation of injected dose per gram of tissue (% ID/g). No differences were noted between the data calculated by three different windows; therefore, the biodistributions are reported using the data acquired using window A. The inventors evaluated biodistribution of ^225Ac-crown-αMSH in mice bearing B16F10 tumors at 2 h post-injection (p.i.) in two separate studies using a total of 5 groups of mice (Table 3). In the first study, three conditions were evaluated: ^225Ac-crown-αMSH prepared the day before (18 h) (A, FIG. 22, right bars), same day (4 h) (B), or same day (4 h) with Sep-Pak purification (C); in the second study the inventors compared 225Ac-crown-αMSH labelled 4 hours before with Sep-Pak purification and with the introduction of 0.1 M L-ascorbate (D, FIG. 22, left bars), or ^225Ac-crown-αMSH prepared 18 hours prior with L-ascorbate (E).

[1] = DTPA challenge (transmetallation) of ^225Ac-crown-αMSH on HPLC; format: physicochemical; settings: addition of 1000 eq. of DTPA, in 7 hours
[2] = Stability of ^225Ac-labelled crown complex left at ambient temperature; format: physicochemical; settings: up to 5 days and up to 8 days in a second experiment
Protocol: The reaction was largely complete after 10 min. […] To obtain the data shown in FIG. 14, labeling with crown was conducted at room temperature for a period of 15 minutes, while labelling with DOTA was conducted at 90° C. for a period of 15 minutes.

Row | free ^225Ac observed [2] | SMILES | tissue uptake at 2 h (in vivo; 20 kBq, Biodistribution: Bone) | tissue to tissue ratio at 2 h (in vivo; tumor to blood ratio) | tissue to tissue ratio at 2 h (in vivo; tumor to bone ratio) | tissue to tissue ratio at 2 h (in vivo; tumor to kidneys ratio) | tissue uptake at 2 h (in vivo; tumor uptake) | transmetallation on HPLC [1]
1 | – | CCCC[C@H](NC(=O)CN1CCC(NC(=O)CN2CCOCCN(CC(=O)O)CCN(CC(=O)O)CCOCCN(CC(=O)O)CC2)CC1)C(=O)N[C@H]1CC(=O)NCCCC[C@@H](C(N)=O)NC(=O)[C@H](Cc2c[nH]c3ccccc23)NC(=O)[C@H](CCCNC(=N)N)NC(=O)[C@@H](Cc2ccccc2)NC(=O)[C@H](Cc2c[nH]cn2)NC1=O [^225Ac-crown-αMSH, metal not drawn] | 1.82 %ID/g | 85.4 ± 46.8 | 63.5 ± 13.2 | 2.8 ± 0.98 | 12.7 ± 2.31 %ID/g | 64%
2 | < 2% | O=C(O)CN1CCOCCN(CC(=O)O)CCN(CC(=O)O)CCOCCN(CC(=O)O)CC1 [crown, 2,2’,2”,2’”-(1,10-dioxa-4,7,13,16-tetraazacyclooctadecane-4,7,13,16-tetrayl)tetraacetic acid] | – | – | – | – | – | –
